± gives the uncertainty stated by the source.
B1: POU domain, class 6, transcription factor 2, residues 609 to 663; numbered along this chain, P78424 (parent)
chain: KRRTSFTPQALEILNAHFEKNTHPSGQEMTEIAEKLNYDREVVRVWFCNKRQALK

Variants of: B1
Test: abundance fitness (aPCA) (normalised: wild type 0, dead -1); higher = more abundant; growth selection in yeast, the domain comes from the species named
Conditions: Homo sapiens

KRRTSFGPQALEILNAHFEKNTHPSGQEMTEIAEKLNYDREVVRVWFCNKRQALK and KRRTSFHPQALEILNAHFEKNTHPSGQEMTEIAEKLNYDREVVRVWFCNKRQALK are within error of each other in abundance fitness: -0.007 ± 0.093 for the first, -0.226 ± 0.18 for the second.

KRRTSFTPQALEILNAHFEKNTQPSGQEMTEIAEKLNYDREVVRVWFCNKRQALK and KSRTSFTPQALEILNAHFEKNTHPSGQEMTEIAEKLNYDREVVRVWFCNKRQALK are within error of each other in abundance fitness: -0.029 ± 0.13 for the first, 0.106 ± 0.089 for the second.

KRRTSFTPQALEIGNAHFEKNTHPSGQEMTEIAEKLNYDREVVRVWFCNKRQALK and KRRTSFTPQALEIKNAHFEKNTHPSGQEMTEIAEKLNYDREVVRVWFCNKRQALK are within error of each other in abundance fitness: -0.919 ± 0.08 for the first, -0.874 ± 0.34 for the second.

KRRTSFTPQALEILNANFEKNTHPSGQEMTEIAEKLNYDREVVRVWFCNKRQALK and KRRTSETPQALEILNAHFEKNTHPSGQEMTEIAEKLNYDREVVRVWFCNKRQALK are within error of each other in abundance fitness: -0.101 ± 0.15 for the first, -0.191 ± 0.11 for the second.

Going from KRRTSITPQALEILNAHFEKNTHPSGQEMTEIAEKLNYDREVVRVWFCNKRQALK to KRRTSDTPQALEILNAHFEKNTHPSGQEMTEIAEKLNYDREVVRVWFCNKRQALK, the abundance fitness falls from 0.092 ± 0.1 to -0.246 ± 0.13.

KRRTSFTPQALEILNAHFEKNTHPSGQEMNEIAEKLNYDREVVRVWFCNKRQALK and KRRTSFTPQALEILNAHFEKNTHPSGQEMTEIAEKLNYDYEVVRVWFCNKRQALK are within error of each other in abundance fitness: -0.177 ± 0.4 for the first, -0.087 ± 0.11 for the second.

KRRTSFTPQALEILNAHFEKNTHPSGQEMTEIAEKLNYDAEVVRVWFCNKRQALK and KRRTSFTPQALEILNAHFEKNTHPSGQEMTEIAEKLNYDWEVVRVWFCNKRQALK are within error of each other in abundance fitness: 0.024 ± 0.084 for the first, -0.014 ± 0.089 for the second.

First: KRRTSFTPQALEILNAHFEKNTHKSGQEMTEIAEKLNYDREVVRVWFCNKRQALK
Second: KRRTSFTPQALEILNAHFEKNTHTSGQEMTEIAEKLNYDREVVRVWFCNKRQALK
The abundance fitness of the first is lower: -1.1 ± 0.15 for the first, -0.641 ± 0.11 for the second.

KRRTSFTPQALEILNMHFEKNTHPSGQEMTEIAEKLNYDREVVRVWFCNKRQALK and KRRTSFTPQALEILNLHFEKNTHPSGQEMTEIAEKLNYDREVVRVWFCNKRQALK are within error of each other in abundance fitness: 0.016 ± 0.09 for the first, -0.054 ± 0.066 for the second.

KRRTSFTPQALEILNAHFEKNTHPSGQEMTEIAECLNYDREVVRVWFCNKRQALK and KRRTSFTPQALEILNAHFEKNTHPSGQEMTEIAEQLNYDREVVRVWFCNKRQALK are within error of each other in abundance fitness: -0.186 ± 0.12 for the first, -0.095 ± 0.22 for the second.

KRRTSFTPQALEILNAHFEKNTHPSGPEMTEIAEKLNYDREVVRVWFCNKRQALK and KRRTSFTPQALEILNAHFEKNTHPSGVEMTEIAEKLNYDREVVRVWFCNKRQALK are within error of each other in abundance fitness: -0.005 ± 0.17 for the first, -0.091 ± 0.075 for the second.

KRRTSFTPQALEILNAHFEKNTHPSGSEMTEIAEKLNYDREVVRVWFCNKRQALK and KRRTSFTPQALEILNAHFEKNTHPSGQEMTEIAEKLNYDREVVHVWFCNKRQALK are within error of each other in abundance fitness: -0.071 ± 0.084 for the first, -0.199 ± 0.14 for the second.

Compared with KRRTSFTPQALEILNAHFEKNTHPSGQEMTEIAEKLNYDREVVWVWFCNKRQALK, KRRTSFTPQALEILNAHFEKNTHPSGQEMTEIAEKLNYDREVRRVWFCNKRQALK is lower in abundance fitness: 0.037 ± 0.078 for the first, -0.935 ± 0.11 for the second.

First: KRRTSFTPQALEILNAHFEKNTHPSGQEMTEIAEKLNYDREVQRVWFCNKRQALK
Second: KRRTSFTPQACEILNAHFEKNTHPSGQEMTEIAEKLNYDREVVRVWFCNKRQALK
The abundance fitness of the first is lower: -1.04 ± 0.26 for the first, -0.409 ± 0.14 for the second.

KRRTSFTPQALEILNAHFEKNTHPSGQEMTEIAEKLNYDREVVRVWFCNKRQASK and KRRTSFTPQALEILNAHFEKNTHPSGQEMTEIAEKLNYDREVVRVWFCNKRQQLK are within error of each other in abundance fitness: -0.065 ± 0.1 for the first, 0.042 ± 0.13 for the second.

KRRTSFTPQALEILNAHFEKKTHPSGQEMTEIAEKLNYDREVVRVWFCNKRQALK and KRRTSFTPQALEILNAHFEKNTHPSGQEMTEIAEKLNYDREVVRVWFINKRQALK are within error of each other in abundance fitness: -0.303 ± 0.13 for the first, -0.475 ± 0.36 for the second.

KRRTSFTPQALEILNAHFEKNTHPSGQEMTEIAEKLNYDREVVRVWFNNKRQALK and KRRTSFTPQALEILNAHFEKNTHPSGQEMTEIAEKLNYDREVVRVWFMNKRQALK are within error of each other in abundance fitness: 0.277 ± 0.43 for the first, 0.18 ± 0.39 for the second.

KRRTSFTPQALEILNAHFEKNTHPSGQEMTEIAEKLNYDREVVRVWFCFKRQALK and KRRTSFTPQALEILNAHFEKNTHPSGQEMTEIAEKLNYDREVVRYWFCNKRQALK are within error of each other in abundance fitness: -0.292 ± 0.19 for the first, -0.653 ± 0.29 for the second.

Going from KRRTSFTPQALEILNAHFEKNTHPSGQEMTEIAEKLNYDREVVRPWFCNKRQALK to KRRTSFTPQALEILNAHFEKNTHPSGQEMTEIAEKLNYDREVVREWFCNKRQALK, the abundance fitness rises from -0.706 ± 0.18 to -0.194 ± 0.23.

First: KRRTSFTPQALGILNAHFEKNTHPSGQEMTEIAEKLNYDREVVRVWFCNKRQALK
Second: KRRTSFTPQALEILWAHFEKNTHPSGQEMTEIAEKLNYDREVVRVWFCNKRQALK
The abundance fitness of the first is higher: -0.105 ± 0.11 for the first, -0.361 ± 0.11 for the second.

Going from KRRTSFTPQALEILNAHFEKNTHPSGQEMTEIAEKLNYDREVVRVWFCNVRQALK to KRRTSFTPQALEILNAHFEKNTHPSGQEMTEIAEKLNYDREVVRVWFCNDRQALK, the abundance fitness falls from -0.638 ± 0.077 to -0.946 ± 0.17.

KRRTSFTPQALEYLNAHFEKNTHPSGQEMTEIAEKLNYDREVVRVWFCNKRQALK and KRRTSFTPQALECLNAHFEKNTHPSGQEMTEIAEKLNYDREVVRVWFCNKRQALK are within error of each other in abundance fitness: 0.002 ± 0.15 for the first, -0.113 ± 0.18 for the second.

First: KRRTSFTPQALEILNAHFEKNTHPSGQEMTEIAEKLQYDREVVRVWFCNKRQALK
Second: KRRTSFTPQALEILNAHFEKNTHPSGQEMTEIAEKLVYDREVVRVWFCNKRQALK
The abundance fitness of the first is higher: -0.06 ± 0.12 for the first, -0.456 ± 0.097 for the second.

KRRTSFTPQALEILNAHTEKNTHPSGQEMTEIAEKLNYDREVVRVWFCNKRQALK and KRRTSFTPQALEILNAHQEKNTHPSGQEMTEIAEKLNYDREVVRVWFCNKRQALK are within error of each other in abundance fitness: -0.961 ± 0.21 for the first, -0.937 ± 0.24 for the second.

Source: the Human Domainome abundance scans (Beltran et al. 2025)
